# Test results: patent publication US20060110396A1
# Molecular target: Human CDw52 (human) (UniProt P31358)
# Assay: cell-based or functional assay
substance,measurement,value
CAMPATH (antibody),"51Cr release assay, lysis (apoptosis) of macrophage-cell line THP-1 after 18 h",70%
same,"51Cr release assay, lysis (apoptosis) of macrophage-cell line U-937 after 18 h",55%
